We go through 1 substance from paper PMC3437550.

The test deals with Torpedo californica nicotinic acetylcholine receptor (Torpedo californica) (UniProt P02710). The experiment in a line: SEC. (In gel filtration, larger molecules generally elute earlier.)

“Torpedo californica nicotinic acetylcholine receptor (from UniProt P02710 25-461; P02712 25-493; P02714 18-506; P02718 22-522) (complex)” returned a percent dimer of 72.7%.
